Data taken from the supplement of paper PMC7877785.
± gives the uncertainty stated by the source.

Assay: self-splicing fitness, log relative to wild type (ln ratio); higher = more splicing; Tetrahymena group I intron in knt gene, E. coli kanamycin selection, DiMSum; sequences stand for … in CUCUCU…GGAGGGAAAAGUUAUCAGGCAUGCACCUGGUAGCUAGUCUUUAAACCAAUAGAUUGCAUCGGUUUAAAAGGCAAGACCGUCAAAUUGCGGGAAAGGGGUCAACAGCCGUUCAGUACCAAGUCUCAGGGGAAACUUUGAGAUGGCCUUGCAAAGGGUAUGGUAAUAAGCUGACGGACAUGGUCCUAACCACGCAGCCAAGUCCUAAGUCAACAGAUCUUCUGUUGAUAUGGAUGCAGUUCACAGACUAAAUGUCGGUCGGGGAAGAUGUAUUCUUCUCAUAAGAUAUAGUCGGACCUCUCCUUAAUGGGAGCUAGCGGAUGAAGUGAUGCAACACUGGAGCCGCUGGGAACUAAUUUGUAUGCGAAAGUAUAUUGAUUAGUUUUGGAGUACUCGUGGUCG
Method in brief: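 DiMSum derived fitness as the error-weighted combination of fold changes across replicates, kanamycin versus no kanamycin, normalised to wild type. E. coli BL21(DE3) held the library, which randomised all eight P1ex-region intron nucleotides within the knt kanamycin-resistance gene on pET-22b(+). Six replicate transformations grew overnight at 37°C or 30°C on LB agar with or without 25 μg/mL kanamycin, also containing 100 μg/mL carbenicillin, 50 μM IPTG and 0.2% rhamnose, and pooled colonies were amplicon-sequenced on an Illumina HiSeq 2500.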

Row | Sequence | self-splicing fitness (ln) (30 °C) | self-splicing fitness (ln) (37 °C)
1 | GGUAAGCAAUAUUACGGUCA | -0.727 ± 0.1 | 0.416 ± 0.11
2 | CCCAAGCAAUAUUACGACUA | -2.52 ± 0.17 | -2.31 ± 0.18
3 | AGGUAGCAAUAUUACGCACU | -1.32 ± 0.017 | -0.862 ± 0.035
4 | UUCGAGCAAUAUUACGUCAG | -3.92 ± 0.43 | 0.987 ± 0.26
5 | CUCUAGCAAUAUUACGCAAU | – | -3.09 ± 0.38
6 | ACUCAGCAAUAUUACGUGAC | -3.15 ± 0.14 | -0.561 ± 0.11
7 | CAUCAGCAAUAUUACGAGUU | -4.08 ± 0.19 | -2.53 ± 0.12
8 | GUUGAGCAAUAUUACGCAGA | -2.67 ± 0.34 | -3.6 ± 0.46
9 | CCUCAGCAAUAUUACGUAAC | – | -2.13 ± 0.47
10 | GGCGAGCAAUAUUACGGUCA | 0.0811 ± 0.15 | -0.103 ± 0.13
11 | CACUAGCAAUAUUACGUUAA | -2.77 ± 0.2 | -2.11 ± 0.23
12 | CGUAAGCAAUAUUACGCAUA | -3.73 ± 0.34 | -3.16 ± 0.21
13 | AUGCAGCAAUAUUACGCGGC | -3.79 ± 0.47 | –
14 | AACCAGCAAUAUUACGGAGA | -1.62 ± 0.086 | -1.5 ± 0.084
15 | GGCUAGCAAUAUUACGGAUC | -0.815 ± 0.23 | 0.314 ± 0.2
16 | GCAGAGCAAUAUUACGGUGC | -2.67 ± 0.19 | -1.9 ± 0.24
17 | AGCAAGCAAUAUUACGUAAC | -5.08 ± 0.25 | -2.09 ± 0.14
18 | UCAUAGCAAUAUUACGCAGG | -3.24 ± 0.17 | -3.01 ± 0.17
19 | AUAUAGCAAUAUUACGUCCG | – | -1.64 ± 0.43
20 | AUAGAGCAAUAUUACGAUUC | -2.37 ± 0.28 | -1.08 ± 0.33
21 | CCGGAGCAAUAUUACGAUGU | -1.72 ± 0.14 | -0.726 ± 0.17
22 | GUUGAGCAAUAUUACGACAC | -0.129 ± 0.18 | -0.362 ± 0.19
23 | AGGUAGCAAUAUUACGUCAA | -2.28 ± 0.023 | -1.6 ± 0.036
24 | UAUUAGCAAUAUUACGACUU | -0.468 ± 0.13 | -0.537 ± 0.14
25 | UAAGAGCAAUAUUACGUCUC | -4.3 ± 0.34 | -2.31 ± 0.21
26 | GGCUAGCAAUAUUACGCUGC | -3.21 ± 0.19 | -2.65 ± 0.19
27 | AAAAAGCAAUAUUACGGACA | -0.0577 ± 0.11 | -0.0474 ± 0.12

Row | Sequence | self-splicing fitness (ln) (30 °C) | self-splicing fitness (ln) (37 °C)
28 | CGUCAGCAAUAUUACGAGGG | -3.93 ± 0.1 | -1.81 ± 0.099
29 | UUCCAGCAAUAUUACGUCAU | -3.65 ± 0.2 | -2.72 ± 0.2
30 | CACCAGCAAUAUUACGCGGC | -2.68 ± 0.21 | -2.72 ± 0.29
31 | GUAGAGCAAUAUUACGGAAU | -2.36 ± 0.084 | -1.18 ± 0.096
32 | GGCUAGCAAUAUUACGGAGG | -3.21 ± 0.26 | -1.58 ± 0.2
33 | CGCGAGCAAUAUUACGCUUC | – | -1.44 ± 0.45
34 | ACGGAGCAAUAUUACGUGUG | -3.92 ± 0.19 | -2.56 ± 0.14
35 | CCUGAGCAAUAUUACGUCCA | -1.86 ± 0.28 | –
36 | AUGUAGCAAUAUUACGGAUC | -1.92 ± 0.2 | -1.61 ± 0.23
37 | AAAGAGCAAUAUUACGUGAU | -2.95 ± 0.1 | -1.81 ± 0.12
38 | ACUAAGCAAUAUUACGUGGC | -3.03 ± 0.14 | -2.57 ± 0.17
39 | CAAAAGCAAUAUUACGGAGA | -2.88 ± 0.28 | -3.43 ± 0.3
40 | GAUAAGCAAUAUUACGGCGU | 0.319 ± 0.077 | 0.486 ± 0.1
41 | CGCCAGCAAUAUUACGCAAC | -3.25 ± 0.27 | -3.44 ± 0.42
42 | UAGUAGCAAUAUUACGGUUG | -0.955 ± 0.056 | -0.642 ± 0.07
43 | UUAUAGCAAUAUUACGUGCC | -2.08 ± 0.27 | -0.756 ± 0.35
44 | CUGAAGCAAUAUUACGGAGC | – | -0.931 ± 0.49
45 | GUCAAGCAAUAUUACGAAGA | -3.88 ± 0.28 | –
46 | AUAAAGCAAUAUUACGGGCC | -2.21 ± 0.17 | -0.0428 ± 0.17
47 | AGACAGCAAUAUUACGUUAC | -3.81 ± 0.19 | -1.34 ± 0.17
48 | GUCAAGCAAUAUUACGAAAC | -1.37 ± 0.27 | 0.108 ± 0.3
49 | UUUGAGCAAUAUUACGUAUU | -3.89 ± 0.27 | -2.46 ± 0.21
50 | GCUUAGCAAUAUUACGGCCG | -1.9 ± 0.34 | -1.48 ± 0.36
51 | AUAGAGCAAUAUUACGCCGU | -0.866 ± 0.21 | 0.511 ± 0.26
52 | CUCGAGCAAUAUUACGCCGG | -3.32 ± 0.43 | -1.17 ± 0.34
53 | UCUGAGCAAUAUUACGCCUU | -3.06 ± 0.12 | -1.54 ± 0.14
54 | GCACAGCAAUAUUACGGACU | -0.665 ± 0.082 | -0.54 ± 0.086

Row | Sequence | self-splicing fitness (ln) (30 °C) | self-splicing fitness (ln) (37 °C)
55 | CCGUAGCAAUAUUACGUAUU | -4.16 ± 0.28 | -3.58 ± 0.39
56 | GCUCAGCAAUAUUACGGACC | -0.753 ± 0.1 | -0.186 ± 0.13
57 | CAUCAGCAAUAUUACGGAUC | -1.79 ± 0.088 | 0.216 ± 0.11
58 | UAGGAGCAAUAUUACGCGAU | -3.84 ± 0.47 | -2.68 ± 0.34
59 | UAUCAGCAAUAUUACGUGUU | -3.36 ± 0.14 | -2.83 ± 0.12
60 | UUUAAGCAAUAUUACGGCUC | -1.82 ± 0.17 | -0.633 ± 0.2
61 | UUGGAGCAAUAUUACGACAU | -1.81 ± 0.02 | -1.04 ± 0.036
62 | UGUGAGCAAUAUUACGCCCA | -0.902 ± 0.39 | -1.3 ± 0.36
63 | UGUAAGCAAUAUUACGCUCG | -1.1 ± 0.11 | -0.752 ± 0.13
64 | CCGCAGCAAUAUUACGCGCU | -3.09 ± 0.21 | -2.01 ± 0.23
65 | CCUGAGCAAUAUUACGUGAG | -3.61 ± 0.27 | -2.28 ± 0.24
66 | UUUGAGCAAUAUUACGGACA | – | -2.57 ± 0.48
67 | CCCAAGCAAUAUUACGGUUG | -3.99 ± 0.17 | -2.52 ± 0.13
68 | UGAAAGCAAUAUUACGCUUC | -2.32 ± 0.42 | -2.29 ± 0.29
69 | GUAUAGCAAUAUUACGGUGG | -2.54 ± 0.1 | -2.63 ± 0.17
70 | GCUGAGCAAUAUUACGAUCG | – | -0.335 ± 0.25
71 | CCCGAGCAAUAUUACGAACG | – | -1.84 ± 0.44
72 | AGCGAGCAAUAUUACGCAGG | -2.43 ± 0.24 | –
73 | AAGGAGCAAUAUUACGUGCU | – | -2.92 ± 0.47
74 | UGCUAGCAAUAUUACGCGCC | -1.26 ± 0.2 | -0.477 ± 0.29
75 | CCUAAGCAAUAUUACGACAC | -3.33 ± 0.44 | -2.03 ± 0.29
76 | CUUGAGCAAUAUUACGGCAG | -1.01 ± 0.11 | -0.0287 ± 0.15
77 | GCGAAGCAAUAUUACGAGGU | -2.98 ± 0.2 | -2.76 ± 0.33
78 | GCGGAGCAAUAUUACGAGAC | -2.85 ± 0.38 | –
79 | CAAUAGCAAUAUUACGCGAU | -3.99 ± 0.23 | -2.92 ± 0.29
80 | CUCUAGCAAUAUUACGCCCG | – | -0.832 ± 0.42
